US20140234868A1, “USE FOR GLYCOLIPOPROTEIN GINTONIN, ISOLATED AND IDENTIFIED FROM GINSENG, AS A NATURAL MEDICAL-PLANT DERIVED LIGAND” (KONKUK UNIVERSITY INDUSTRIAL COOPERATION CORP., priority 2011, published 2014)

Legend:
[1] = target: T1, mutant W4.64A LPA3 receptor (Homo sapiens, UniProt Q9UBY5, W167A); assay: Intracellular Ca2+ in B103 cells with mutant W4.64A LPA3 receptor; format: cell-based; details: W4.64A LPA3 receptor-transfected B103 cells
T1 construct: expressed in transfected cells; host or cells: B103 rat neuroblastoma cells
T1 sequence (Q9UBY5 1-353 W167A): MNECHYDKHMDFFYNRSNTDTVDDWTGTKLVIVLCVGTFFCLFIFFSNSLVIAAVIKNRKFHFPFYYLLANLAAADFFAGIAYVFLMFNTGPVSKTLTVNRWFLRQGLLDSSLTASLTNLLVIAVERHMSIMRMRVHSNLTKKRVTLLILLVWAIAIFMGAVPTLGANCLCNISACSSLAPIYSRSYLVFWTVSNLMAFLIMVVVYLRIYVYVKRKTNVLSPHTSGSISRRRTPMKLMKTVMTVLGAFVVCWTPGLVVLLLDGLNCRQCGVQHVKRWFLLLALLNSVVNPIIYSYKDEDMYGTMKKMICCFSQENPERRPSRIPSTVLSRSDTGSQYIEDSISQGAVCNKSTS
Source text: That is, LPA receptors have specific amino acid residues, known as binding sites, which are responsible for interaction with LPA, and the binding of LPA to the specific amino acids starts to exert the function. This Example was configured to examine a change in the gintonin-induced intracellular calcium increase through LPA receptor activation in LPA3 receptor-expressing cells when specific amino acids of the LPA binding site in LPA receptors were mutated.
To this end, a mutant LPA receptor in which Arg3.28, known as a common LPA binding site of LPA1-LPA3 receptors, was mutated as Arg3.28Ala (that is, Arg is substituted by Ala; R3.28A) or Trp4.64, known as an LPA-binding site of LPA3 receptor was mutated as Trp4.64Ala (that is, Tip is substituted by Ala; W4.64A) (Valentine et al., J. Biol. Chem. 283, 12175-12187, 2008) was transfected to B103 cells which were then tested for the action of gintonin, in comparison with cells transfected with the wild-type. […] From the result, it is henceforth understood that the gintonin-triggered LPA receptor activation is achieved by interaction with the LPA binding sites of LPA receptors and that gintonin occupies the LPA binding sites to activate LPA receptors.

endogenous CaCC = details: Xenopus oocytes; Pyo et al. 2011; cited from earlier work
LPA5 receptor = LPA5 receptor (Homo sapiens, UniProt Q9H1C0); assay: Intracellular free Ca2+ (Fura-2AM) in LPA5-expressing B103 cells; format: cell-based; design: host or cells: B103 rat neuroblastoma cells
Source text: LPA family receptors are endogenous to cells of most organs. B103 rat neuroblastoma cells, known as LPA receptor-null cells (Valentine et al., Biochim Biophys Acta 1780. 597-605) were transiently transfected with a plasmid (vector) carrying one of genes coding for LPA1(edg-2), LPA2(edg-4), LPA3(edg-7), LPA4, LPA5 and LPA6 receptors or a plasmid carrying none of them (empty vector). Two or three days after transfection, the cells are suspended, and made permeable. Then, the permeable cells are treated with Fura-2AM, a fluorescent dye binding to calcium, and then with gintonin, followed by spectrofluorephotometry to examine whether gintonin induces an increase in intracellular free Ca^2+ level. […]

Chain of LPA5 receptor (Q9H1C0 whole entry): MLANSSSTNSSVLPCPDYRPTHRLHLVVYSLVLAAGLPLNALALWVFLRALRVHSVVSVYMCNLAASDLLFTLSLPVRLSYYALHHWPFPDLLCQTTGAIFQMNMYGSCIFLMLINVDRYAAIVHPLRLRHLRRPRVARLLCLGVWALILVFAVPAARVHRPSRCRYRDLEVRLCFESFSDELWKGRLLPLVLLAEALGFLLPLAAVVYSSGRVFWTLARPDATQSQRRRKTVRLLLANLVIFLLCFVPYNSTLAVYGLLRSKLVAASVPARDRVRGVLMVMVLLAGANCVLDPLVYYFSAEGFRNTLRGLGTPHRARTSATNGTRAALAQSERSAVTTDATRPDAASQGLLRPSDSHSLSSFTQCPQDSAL

B1: gintonin: ginseng-derived glycolipoprotein; structural protein of ginseng major latex-like protein (MLP151) and ribonuclease-like storage proteins; crude gintonin used in tests (protein)
chain 1: MGLTGKLICQTGIKSDGDVFHELFGTRPHHVPNITPANIQGCDLHEGEFGKVGSVVIWNYSIDGNAMIAKEEIVAIDEEDKSVTFKVVEGHLFEEFKSIVFSVHVDTKGEDNLVTWSIDYEKLNESVKDPTSYLDFLLSVTRDIEAHHLPK
chain 2: RSDYPWAMFALRLQWPAGFCEVNNACDTKSLLNTFTIHGLYPYNAKGTPALYCDGTAFDVNSVSDFLAEMHLAWPSHETNTEDIQFWEHEWKKHGRCSEALLKQTDYFRTALAFRKAFDIVGLLNQEGIYPNNDLYRPKMIKEAIKKHLNAVPEIDFTKNENSEYVLTDINVCVNQQATRFVDCPTDDATDDYRLKFVRLPSKMKFADPRTNSII
[1]
  gintonin-induced intracellular calcium increase vs wild-type: greatly reduced
Endogenous CaCC
  CaCC activation: activate endogenous Ca^2+-activated channel (CaCC)
LPA5 receptor; LPA5 receptor, B103 cells, read-out: EC50, LPA receptor-mediated intracellular calcium increase
  EC50: 0.046 ± 0.003 nM
LPA5 receptor; gintonin 1 μg/ml, LPA5-expressing B103 cells
  increase in intracellular calcium level: 297.5 ± 21.8 µM
